Laboratory results as given in IntAct's records for PubMed 16696976.

B1: Amphiphysin (Homo sapiens), P49418 (parent)
chain: MADIKTGIFAKNVQKRLNRAQEKVLQKLGKADETKDEQFEEYVQNFKRQEAEGTRLQRELRGYLAAIKGMQEASMKLTESLHEVYEPDWYGREDVKMVGEKCDVLWEDFHQKLVDGSLLTLDTYLGQFPDIKNRIAKRSRKLVDYDSARHHLEALQSSKRKDESRISKAEEEFQKAQKVFEEFNVDLQEELPSLWSRRVGFYVNTFKNVSSLEAKFHKEIAVLCHKLYEVMTKLGDQHADKAFTIQGAPSDSGPLRIAKTPSPPEEPSPLPSPTASPNHTLAPASPAPARPRSPSQTRKGPPVPPLPKVTPTKELQQENIISFFEDNFVPEISVTTPSQNEVPEVKKEETLLDLDFDPFKPEVTPAGSAGVTHSPMSQTLPWDLWTTSTDLVQPASGGSFNGFTQPQDTSLFTMQTDQSMICNLAESEQAPPTEPKAEEPLAAVTPAVGLDLGMDTRAEEPVEEAVIIPGADADAAVGTLVSAAEGAPGEEAEAEKATVPAGEGVSLEEAKIGTETTEGAESAQPEAEELEATVPQEKVIPSVVIEPASNHEEEGENEITIGAEPKETTEDAAPPGPTSETPELATEQKPIQDPQPTPSAPAMGAADQLASAREASQELPPGFLYKVETLHDFEAANSDELTLQRGDVVLVVPSDSEADQDAGWLVGVKESDWLQYRDLATYKGLFPENFTRRLD
partner: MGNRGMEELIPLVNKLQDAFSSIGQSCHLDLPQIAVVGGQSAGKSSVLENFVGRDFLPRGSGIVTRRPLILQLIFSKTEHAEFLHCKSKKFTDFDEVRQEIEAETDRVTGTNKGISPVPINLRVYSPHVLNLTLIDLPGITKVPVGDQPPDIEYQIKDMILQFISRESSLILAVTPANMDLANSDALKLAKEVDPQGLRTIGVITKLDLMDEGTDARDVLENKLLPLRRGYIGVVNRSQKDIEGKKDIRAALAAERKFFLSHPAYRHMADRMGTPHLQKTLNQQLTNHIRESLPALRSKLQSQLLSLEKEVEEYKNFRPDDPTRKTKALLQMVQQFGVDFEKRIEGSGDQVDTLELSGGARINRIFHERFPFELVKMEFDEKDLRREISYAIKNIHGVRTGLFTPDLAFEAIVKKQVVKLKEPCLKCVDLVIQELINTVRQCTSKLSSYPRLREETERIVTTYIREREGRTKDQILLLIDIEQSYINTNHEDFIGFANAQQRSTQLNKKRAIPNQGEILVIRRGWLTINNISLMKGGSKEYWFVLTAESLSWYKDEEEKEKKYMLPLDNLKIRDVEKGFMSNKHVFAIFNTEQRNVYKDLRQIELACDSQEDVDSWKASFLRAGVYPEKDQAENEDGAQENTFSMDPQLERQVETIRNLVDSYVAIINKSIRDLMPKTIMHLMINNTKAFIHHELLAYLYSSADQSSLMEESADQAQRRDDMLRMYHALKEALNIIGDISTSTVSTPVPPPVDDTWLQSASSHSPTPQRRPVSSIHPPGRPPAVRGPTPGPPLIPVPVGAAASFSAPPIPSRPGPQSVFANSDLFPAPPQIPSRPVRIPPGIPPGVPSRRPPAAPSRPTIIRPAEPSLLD

Variants of: B1
Conditions: with dyn2_human DNM2, P50570

| Variant | effect of a mutation on the interaction |
| --- | --- |
| G684R | disrupting interaction |
| P687L | disrupting interaction |
